Measurements taken from paper PMC3167627.

Target: Mcm2WT-7 (Mcm2-7) (Saccharomyces cerevisiae, UniProt P29469;P24279;P30665;P29496;P53091;P38132 1-868;1-971;1-933;1-775;1-1017;1-845)
Test: EMSA

B1: poly-dT60 (ssDNA)
DNA: TTTTTTTTTTTTTTTTTTTTTTTTTTTTTTTTTTTTTTTTTTTTTTTTTTTTTTTTTTTT
  binding result: binds
